Assay results from PMC6433120 (Nature, 2018).

Target: T1, CC-SAM domain of murine KSR1 (mouse, UniProt Q61097 25-170)
T1 sequence (looked up): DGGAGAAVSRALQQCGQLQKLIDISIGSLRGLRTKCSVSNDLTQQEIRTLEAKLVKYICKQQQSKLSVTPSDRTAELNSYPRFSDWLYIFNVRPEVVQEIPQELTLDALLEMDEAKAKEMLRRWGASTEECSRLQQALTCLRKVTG
Assay: NMR titration

B1: BRS domain of human BRAF (domain or fragment, UniProt P15056 36-114, looked up)
chain: SSAADPAIPEEVWNIKQMIKLTQEHIEALLDKFGGEHNPPSIYLEAYEEYTSKLDALQQREQQLLESLGNGTDFSVSSS
  binding result: binds
